T1: P6-AA-12HAA-R
T1 chain: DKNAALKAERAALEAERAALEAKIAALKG

T2: P6-AA-12HAA-L
T2 chain: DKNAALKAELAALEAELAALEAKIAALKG

T3: P6-AA-12HAA-E
T3 chain: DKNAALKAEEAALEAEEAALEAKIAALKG

T4: P6-AA-12HAA-V
T4 chain: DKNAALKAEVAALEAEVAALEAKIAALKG

T5: P6-AA-12HAA-K
T5 chain: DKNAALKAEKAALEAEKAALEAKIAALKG

T6: P6-AA-1HAA-N
T6 chain: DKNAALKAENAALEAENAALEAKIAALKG

T7: P6-AA-12HAA-S
T7 chain: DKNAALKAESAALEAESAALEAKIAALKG

T8: P6-AA-12HAA-Y
T8 chain: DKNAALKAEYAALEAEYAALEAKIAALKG

T9: P6-AA-12HAA-D
T9 chain: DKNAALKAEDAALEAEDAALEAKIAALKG

T10: P6-AA-12HAA-H
T10 chain: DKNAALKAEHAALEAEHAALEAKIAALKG

T11: P6-AA-12HAA-T
T11 chain: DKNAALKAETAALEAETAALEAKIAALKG


Molecular target: T1, P6-AA-12HAA-R
Assay: two-hybrid library CCmax;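 note: natural log of median RNA to DNA barcode read ratio; higher means stronger binding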
Settings: mean of both orientations

interaction score	Binder
-0.243	DENAALEAKLAALKAKLAALKAEIAALEG [P5-AA-12HAA-L]
1.94	DENAALEAKVAALKAKVAALKAEIAALEG [P5-AA-12HAA-V]
-1.5	DENAALEAKRAALKAKRAALKAEIAALEG [P5-AA-12HAA-R]

The remaining lines, values behind:

Binder	interaction score
DENAALEAKAAALKAKAAALKAEIAALEG [P5-AA-12HAA-A]	-2.54
DENAALEAKDAALKAKDAALKAEIAALEG [P5-AA-12HAA-D]	-1.55
DENAALEAKKAALKAKKAALKAEIAALEG [P5-AA-12HAA-K]	-1.57
DENAALEAKEAALKAKEAALKAEIAALEG [P5-AA-12HAA-E]	-2.01

Molecular target: T2, P6-AA-12HAA-L
Assay: two-hybrid library CCmax;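 note: natural log of median RNA to DNA barcode read ratio; higher means stronger binding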
Settings: mean of both orientations

interaction score	Binder
1.74	DENAALEAKLAALKAKLAALKAEIAALEG [P5-AA-12HAA-L]
2.29	DENAALEAKVAALKAKVAALKAEIAALEG [P5-AA-12HAA-V]
1.4	DENAALEAKRAALKAKRAALKAEIAALEG [P5-AA-12HAA-R]

More lines, now with the values behind:

Binder	interaction score
DENAALEAKAAALKAKAAALKAEIAALEG [P5-AA-12HAA-A]	1.96
DENAALEAKDAALKAKDAALKAEIAALEG [P5-AA-12HAA-D]	-1.56
DENAALEAKKAALKAKKAALKAEIAALEG [P5-AA-12HAA-K]	1.03
DENAALEAKEAALKAKEAALKAEIAALEG [P5-AA-12HAA-E]	-0.949

Molecular target: T3, P6-AA-12HAA-E
Assay: two-hybrid library CCmax;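 note: natural log of median RNA to DNA barcode read ratio; higher means stronger binding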
Settings: mean of both orientations

interaction score	Binder
0.451	DENAALEAKLAALKAKLAALKAEIAALEG [P5-AA-12HAA-L]
1.61	DENAALEAKVAALKAKVAALKAEIAALEG [P5-AA-12HAA-V]
-1.43	DENAALEAKRAALKAKRAALKAEIAALEG [P5-AA-12HAA-R]

More lines, now with the values behind:

Binder	interaction score
DENAALEAKAAALKAKAAALKAEIAALEG [P5-AA-12HAA-A]	-1.81
DENAALEAKDAALKAKDAALKAEIAALEG [P5-AA-12HAA-D]	-1.97
DENAALEAKKAALKAKKAALKAEIAALEG [P5-AA-12HAA-K]	-1.48
DENAALEAKEAALKAKEAALKAEIAALEG [P5-AA-12HAA-E]	-1.42

Molecular target: T4, P6-AA-12HAA-V
Assay: two-hybrid library CCmax;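 note: natural log of median RNA to DNA barcode read ratio; higher means stronger binding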
Settings: mean of both orientations

interaction score	Binder
2.39	DENAALEAKLAALKAKLAALKAEIAALEG [P5-AA-12HAA-L]
2.1	DENAALEAKVAALKAKVAALKAEIAALEG [P5-AA-12HAA-V]
2.1	DENAALEAKRAALKAKRAALKAEIAALEG [P5-AA-12HAA-R]

The remaining lines, values behind:

Binder	interaction score
DENAALEAKAAALKAKAAALKAEIAALEG [P5-AA-12HAA-A]	1.95
DENAALEAKDAALKAKDAALKAEIAALEG [P5-AA-12HAA-D]	-1.32
DENAALEAKKAALKAKKAALKAEIAALEG [P5-AA-12HAA-K]	2.22
DENAALEAKEAALKAKEAALKAEIAALEG [P5-AA-12HAA-E]	0.123

Molecular target: T5, P6-AA-12HAA-K
Assay: two-hybrid library CCmax;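 note: natural log of median RNA to DNA barcode read ratio; higher means stronger binding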
Settings: not given

interaction score	Binder
-1.98	DENAALEAKAAALKAKAAALKAEIAALEG [P5-AA-12HAA-A]

Same assay, conditions: mean of both orientations

interaction score	Binder
0.645	DENAALEAKLAALKAKLAALKAEIAALEG [P5-AA-12HAA-L]
1.73	DENAALEAKVAALKAKVAALKAEIAALEG [P5-AA-12HAA-V]
-1.69	DENAALEAKRAALKAKRAALKAEIAALEG [P5-AA-12HAA-R]

The remaining lines, values behind:

Binder	interaction score
DENAALEAKDAALKAKDAALKAEIAALEG [P5-AA-12HAA-D]	-1.61
DENAALEAKKAALKAKKAALKAEIAALEG [P5-AA-12HAA-K]	-1.5
DENAALEAKEAALKAKEAALKAEIAALEG [P5-AA-12HAA-E]	-2.37

Molecular target: T6, P6-AA-1HAA-N
Assay: two-hybrid library CCmax;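 note: natural log of median RNA to DNA barcode read ratio; higher means stronger binding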
Settings: mean of both orientations

interaction score	Binder
-0.665	DENAALEAKLAALKAKLAALKAEIAALEG [P5-AA-12HAA-L]
-0.708	DENAALEAKVAALKAKVAALKAEIAALEG [P5-AA-12HAA-V]
0.341	DENAALEAKRAALKAKRAALKAEIAALEG [P5-AA-12HAA-R]

Second part, the binder before the results:

Binder	interaction score
DENAALEAKAAALKAKAAALKAEIAALEG [P5-AA-12HAA-A]	-1.39
DENAALEAKDAALKAKDAALKAEIAALEG [P5-AA-12HAA-D]	-1.68
DENAALEAKKAALKAKKAALKAEIAALEG [P5-AA-12HAA-K]	-1.37
DENAALEAKEAALKAKEAALKAEIAALEG [P5-AA-12HAA-E]	-1.74

Molecular target: T7, P6-AA-12HAA-S
Assay: two-hybrid library CCmax
Settings: not given

interaction score	Binder
-2.76	DENAALEAKKAALKAKKAALKAEIAALEG [P5-AA-12HAA-K]

Same assay, conditions: mean of both orientations

interaction score	Binder
-0.666	DENAALEAKLAALKAKLAALKAEIAALEG [P5-AA-12HAA-L]
1.18	DENAALEAKVAALKAKVAALKAEIAALEG [P5-AA-12HAA-V]
-1.83	DENAALEAKRAALKAKRAALKAEIAALEG [P5-AA-12HAA-R]

The remaining lines, values behind:

Binder	interaction score
DENAALEAKAAALKAKAAALKAEIAALEG [P5-AA-12HAA-A]	-1.71
DENAALEAKDAALKAKDAALKAEIAALEG [P5-AA-12HAA-D]	-1.67
DENAALEAKEAALKAKEAALKAEIAALEG [P5-AA-12HAA-E]	-1.39

Molecular target: T8, P6-AA-12HAA-Y
Assay: two-hybrid library CCmax
Settings: not given

interaction score	Binder
-1.95	DENAALEAKDAALKAKDAALKAEIAALEG [P5-AA-12HAA-D]
2.26	DENAALEAKLAALKAKLAALKAEIAALEG [P5-AA-12HAA-L]

Same assay, conditions: mean of both orientations

interaction score	Binder
1.09	DENAALEAKVAALKAKVAALKAEIAALEG [P5-AA-12HAA-V]
-1.07	DENAALEAKRAALKAKRAALKAEIAALEG [P5-AA-12HAA-R]

The next lines start with the binder.

Binder	interaction score
DENAALEAKAAALKAKAAALKAEIAALEG [P5-AA-12HAA-A]	-0.289
DENAALEAKKAALKAKKAALKAEIAALEG [P5-AA-12HAA-K]	-1.01
DENAALEAKEAALKAKEAALKAEIAALEG [P5-AA-12HAA-E]	-1.59

Molecular target: T9, P6-AA-12HAA-D
Assay: two-hybrid library CCmax
Settings: mean of both orientations

interaction score	Binder
-1.57	DENAALEAKLAALKAKLAALKAEIAALEG [P5-AA-12HAA-L]
-1.5	DENAALEAKVAALKAKVAALKAEIAALEG [P5-AA-12HAA-V]
-1.88	DENAALEAKRAALKAKRAALKAEIAALEG [P5-AA-12HAA-R]

The remaining lines, values behind:

Binder	interaction score
DENAALEAKAAALKAKAAALKAEIAALEG [P5-AA-12HAA-A]	-1.63
DENAALEAKDAALKAKDAALKAEIAALEG [P5-AA-12HAA-D]	-1.47
DENAALEAKKAALKAKKAALKAEIAALEG [P5-AA-12HAA-K]	-1.9
DENAALEAKEAALKAKEAALKAEIAALEG [P5-AA-12HAA-E]	-1.48

Molecular target: T10, P6-AA-12HAA-H
Assay: two-hybrid library CCmax
Settings: mean of both orientations

interaction score	Binder
-0.352	DENAALEAKLAALKAKLAALKAEIAALEG [P5-AA-12HAA-L]
1.34	DENAALEAKVAALKAKVAALKAEIAALEG [P5-AA-12HAA-V]
-1.83	DENAALEAKRAALKAKRAALKAEIAALEG [P5-AA-12HAA-R]

Second part, the binder before the results:

Binder	interaction score
DENAALEAKAAALKAKAAALKAEIAALEG [P5-AA-12HAA-A]	-1.86
DENAALEAKDAALKAKDAALKAEIAALEG [P5-AA-12HAA-D]	-1.57
DENAALEAKKAALKAKKAALKAEIAALEG [P5-AA-12HAA-K]	-1.46
DENAALEAKEAALKAKEAALKAEIAALEG [P5-AA-12HAA-E]	-1.89

Molecular target: T11, P6-AA-12HAA-T
Assay: two-hybrid library CCmax
Settings: mean of both orientations

interaction score	Binder
1.66	DENAALEAKLAALKAKLAALKAEIAALEG [P5-AA-12HAA-L]
1.87	DENAALEAKVAALKAKVAALKAEIAALEG [P5-AA-12HAA-V]
-0.88	DENAALEAKRAALKAKRAALKAEIAALEG [P5-AA-12HAA-R]

The next lines start with the binder.

Binder	interaction score
DENAALEAKAAALKAKAAALKAEIAALEG [P5-AA-12HAA-A]	-0.646
DENAALEAKDAALKAKDAALKAEIAALEG [P5-AA-12HAA-D]	-1.41
DENAALEAKKAALKAKKAALKAEIAALEG [P5-AA-12HAA-K]	-0.798
DENAALEAKEAALKAKEAALKAEIAALEG [P5-AA-12HAA-E]	-1.32

From publication PMC10397247
